Columns and labels:
[1] = PN and peptide size (volume, diameter) by FPLC gel filtration (Superdex 200, globular protein standards); assay type: physicochemical; conditions: for Volume FPLC (diameter) / Volume FPLC: Table 5; for Volume FPLC (diameter): converted from globular protein equivalent MW; for Volume FPLC: globular protein equivalent molecular weight
Procedure, shortened: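 Superdex 200 size exclusion in 0.05 M sodium phosphate, 0.15 M NaCl, 0.1% Tween, pH 7.2 at 0.8 ml/min, calibrated with globular protein standards via Kav. Apparent globular-equivalent molecular weight converted to diameter using radius (nm)=0.066M^1/3.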

[2] = system: HT-29, a human colon carcinoma cell line; assay: PN and peptide binding to cells (non-specific binding, FACS); assay type: cell-based; conditions: HT-29 cells, 30 min at 37° C., FACS
Procedure, shortened: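 Cells seeded at 5×10^5 cells/well the day before, then rinsed and incubated 30 min at 37 °C in 2% FBS/DPBS (+Ca, +Mg) with nanoprobes (added as a 2 μM solution; concentration set spectrophotometrically via dye extinction coefficients). After trypsin/EDTA detachment, cell-associated fluorescence was read by FACS.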

[3] = PN pharmacokinetics, blood fluorescence fit to two-compartment model; assay type: in vivo, mouse; conditions: for Alpha half-life / Alpha rate / Beta half-life / Beta rate: nude mice, IV, 10 nmole, biexponential fit; for k elim half-life / k elim rate / k perm half-life / k perm rate / k vas return half-life / k vas return rate: two-compartment model micro constant
Experimental: Groups of 5 nude mice (female; 25-30 g; 6-8 weeks old; nu/nu) were injected (tail vein, IV) with 10 nmole of PN(783)4.3 or PN(783)10.0. 50 μl of blood was collected from tail tip at the indicated times. The blood was processed as above, and diluted (25 μl plasma, 700 μl of PBS). Fluorescence was measured with Cary Eclipse Fluorescence Spectrophotometer, excitation at 765 nm and emission from 790 to 880 nm. The fluorescence intensity at 806 nm was plotted over time, and the data was fit with two-phase decay curve. The fast and slow distribution half-life was given by the two-phase decay fit with Graphpad Prism software.
From the two-phase decay fit, a biexponential equation for blood concentration as a function of time, was obtained. By the relation of macro constants and micro constants, micro constants k's can be obtained, and the half-life was calculated by as described in Rosenbaum, S. E. Basic Pharmacokinetics and Pharmacodynamics: An Integrated Textbook and Computer Simulations, (John Wiley and Sons, Hoboken, N.J., 2011). The curve for interstitium concentration vs. time was fit with MATLAB based on the curve of blood concentration vs. time.
Serum fluorescence data from FIG. 24b and FIG. 24c was analyzed using the two-compartment model as described in Rosenbaum, S. E. Basic Pharmacokinetics and Pharmacodynamics: An Integrated Textbook and Computer Simulations, (John Wiley and Sons, Hoboken, N.J., 2011). Data were first fit to biexponential equation, yielding values of Alpha, Beta (apparent decay constants) and values of A and B as shown in equations 1 and 2 below.
By the relation of macro constants and micro constants, […]

[4] = Circulating form of PN's (FPLC of serum after IV injection); assay type: in vivo, mouse; conditions: nude mice, 20 nmoles
Experimental: 20 nmoles of PN(783)4.3, PN(783)6.1, or PN(783)10.0 was injected (IV, tail vein) into nude mice (female; 25-30 g; 6-8 weeks old; nu/nu). At the indicated time, 50 μl of blood was collected with microhematocrit capillary tube (Fisher Scientific) from the tail, and transferred to Eppendorf microcentrifuge tube with anticoagulant (EDTA) coating (Fisher Scientific). Tubes were centrifuged (5000 rpm for 5 minutes), and the supernatant was injected to the FPLC, a ÄKTA Purifier 10 with Superdex™ 200 10/300GL column.

Substance	PEG-based expansion of volume ([1]; 5 kDa PEG vs non-PEGylated peptide, (4.3/1.1)) [fold]	diameter ([1]; FPLC gel filtration) [nm]	Molecular Volume FPLC ([1]; Table 3B, dipeptides) [kDa]	Volume FPLC (diameter) [1] [nm]	Volume FPLC [1] [kDa]	Cell NSB (percent of cells with fluorescence higher than unstained cell) [2] [%]	Alpha half-life [3] [h]	Alpha rate [3] [h⁻¹]	Beta half-life [3] [h]	Beta rate [3] [h⁻¹]	k elim half-life [3] [h]	k elim rate [3] [h⁻¹]	k perm half-life [3] [h]	k perm rate [3] [h⁻¹]	k vas return half-life [3] [h]	k vas return rate [3] [h⁻¹]	circulating form after injection (FPLC elution vs pre-injection sample) [4]
(DOTA)Lys(PEG5K)-Cys(IR-783) [PN(783)4.3]	59	4.3	35.2	4.3	35.2	20	0.13	5.30	1.64	0.42	1.01	0.68	0.40	1.74	0.20	3.30	identical for pre-injection samples and for sera from injected mice
(DOTA)Lys(PEG30K)-Cys(IR-783) [PN(783)10.0]				10.0	435.4	18	0.51	1.36	7.0	0.099	4.2	0.24	1.02	0.67	1.23	0.56	circulates at its pre-injection size

Source: patent publication US20150258217A1, “Methods of Synthesizing and Using Peg-Like Fluorochromes” (THE GENERAL HOSPITAL CORPORATION, priority 2012, published 2015)
